Assay results as given in US20230190801A1.

Biological target: SLAMF7 (human) (UniProt Q9NQ25)
Test: cell-based or functional assay

B1: elotuzumab (antibody, INN chains, looked up, V domains shown)
VH: EVQLVESGGGLVQPGGSLRLSCAASGFDFSRYWMSWVRQAPGKGLEWIGEINPDSSTINYAPSLKDKFIISRDNAKNSLYLQMNSLRAEDTAVYYCARPDGNYWYFDVWGQGTLVTVSS
VL: DIQMTQSPSSLSASVGDRVTITCKASQDVGIAVAWYQQKPGKVPKLLIYWASTRHTGVPDRFSGSGSGTDFTLTISSLQPEDVATYYCQQYSSYPYTFGQGTKVEIKR
Question: Which g-NK cell-mediated cytotoxicity against elotuzumab-treated MM cell lines, correlation with SLAMF7 expression does the source give for B1 here?
Answer: 0.96 R^2
